In patent US20190202896A1 (NOVOBIND LIVESTOCK THERAPEUTICS, published 2019):
Changes are numbered by the printed parent chain.

B1: NBX0200 (VHH)
VHH: QVQLQESGGGLVQAGGSLRLSCAASGRTSSSAYTAWFRQAPGNEREFVASISWSGTTTYYADPVKGRFTISRDNAKNTVYLQMNSLKPDDTAVYYCAADRRSTIGSPRQQYAYWGQGTQVTVSS
notes: also called Clone 97
B2: NBX0100 (VHH)
VHH: QVKLEESGGGLVQAGGSLRLSCAVSGSIFSTNLMGWYRQAPGKQRGFVAHITSGGNTDYLDSVKGRFTISRDNAKNTVYLQMNSLKPEDTAVYYCAAQTLGSSYYDAWGQGTQVTVSS
notes: also called Clone 92
B3: NBX0108 (VHH)
VHH: QVKLEESGGGLVRAGGSLTLSCGASRGTFRTYSMGWFRQAPGKEREFVAAITWNGKYTYYGDSVQGRFTISKDNAKNTVSLQMNRLNPEDTAVYYCAANPIPTAQPPGIMAARSYVHWGQGTQVTVSS
notes: also called Clone 95
B4: NBX0213 (VHH)
VHH: QVQLQESGGGSVQAGGSLRLSCAASGSISSITAMGWNRQAPGNQRELVAVIARGGMIKYDDSVKGRFTISRDIAKNTVFLQMDSLKPEDTGVYYCAVDNGDPRLHWGQGIQVTVSS
notes: also called Clone 110
B5: NBX0105 (VHH)
VHH: QVQLVESGGGLVQAGGSLRLSCAASGRTFNTYYMGWFRQAPGKEREFVSAIRWSDGGTWYADSMKGRFTISRDNAKNTGYLQMNSLKPEDTAIYYCNANVYDGNRWRTYWGQGTQVTVSS
notes: also called Clone 94
B6: NBX0207 (VHH)
VHH: QVQLQESGGGLVQAGKSLRLSCAASTAILSIDSMGWNRQAVGNQRELVAVIARGGSTKYADSVKGRFTITRDISKNTIYLQMNSLKPEDTGVYYCAADPGGASPLSWGQGTQVTVSL
notes: also called Clone 104
B7: NBX0214 (VHH)
VHH: QVQLQESGGGLVQAGGSLRLSCAASGSISSITAMGWNRQAPGNQQRDLVAVIARGGMTKYADSVQGRFTISRDIAKNTVYLQMNSLKPEDTGVYYCALDNGDPRLHWGQGIQVTVSS
notes: also called Clone 111
B8: NBX0217 (VHH)
VHH: B7 VHH with K76N, D99Y
notes: also called Clone 114
B9: NBX0104 (VHH)
VHH: QVQLVESGGGLVQPGGSLRLSCAASGVAFNSRIMGWYRQAPGKQRELVALITSGGSTNYADSVKGRFTISRNNAKKTVYLQMNSLKPEDTAVYYCNIRNYWGQGTQVTVSS
notes: also called Clone 93
B10: NBX0208 (VHH)
VHH: QVQLQESGGGMVQAGGSLRLACTASGDISTIDVMGWNRQAPGKHRELVAIIARGGTIKYADSVKGRFTISRDNTKNTVTVYLQMNNVNAEDTAVYYCAVDTGSPRLTWGQGTQVTVSS
notes: also called Clone 105
B11: NBX0212 (VHH)
VHH: QVQLQESGGGLVQAGGSLRLSCAASTSILSINAMGWNREAPGNRREMVAIIAPGGTTNYADSVKGRFTITRDISKNTIYLQMNNLKPEDTGVYYCAADPGGQSPLSWGQGTQVTVSL
notes: also called Clone 109
B12: NBX0216 (VHH)
VHH: QVQLQESGGGLVQAGGSLRLSCAASTSILSIDAMGWNRQAPGNQRRDLVAVIARGGSTQYADSVKGRFTITRDISKNTIYLQMNSLKPEYTGVYYCAADPGGASGLSWGQGTQVTVSL
notes: also called Clone 113
B13: NBX0210 (VHH)
VHH: QVQLQESGGGLVQAGGSLRLACTASGDISSISVMGWNRQAPGKQQRELVAAIASGGSVKYADSVKGRFTISRDNTKNTVYLQMNSVNAEDTAVYYCAVDTGSPRLTWGQGTQVTVSS
notes: also called Clone 107
B14: NBX0209 (VHH)
VHH: QVQLQESGGGLVQAGGSLRLSCAASGFTFSSSIMAWYRQAPGKQREAIASIPSFGSAVYADSVKDRFTISRDNNKNMVYLQMNSLKPEDTAVYYCNTRLYWGQGTQVTVSS
notes: also called Clone 106
B15: NBX0215 (VHH)
VHH: B14 VHH with S32A, N83D, S111T
notes: also called Clone 112
B16: NBX0211 (VHH)
VHH: B14 VHH with S31T, S32N, M34L, P52T, S53P, D61N, Y94S, R98Q, S111T
notes: also called Clone 108
B17: NBX0221 (VHH)
VHH: QVQLQESGGGLVQAGGSLRLSCAASGLTFNNYAMGWFRQAPGKEREFVATISRDGTNTRYADSVKGRFTISRDNAKNTVDLQMNSLKPEDTAVYYCGVGRGTGYAYTAINEYDYSKWGQGTQVTVSS
notes: also called Clone 118
B18: NBX0232 (VHH)
VHH: B17 VHH with N30H, R59H, T102S
notes: also called Clone 129
B19: NBX0227 (VHH)
VHH: B17 VHH with S21A, N57S, D80N, S85R, T102S, T107S, K116S
notes: also called Clone 124
B20: NBX0236 (VHH)
VHH: B17 VHH with D80N, N110R, Y112H, K116S
notes: also called Clone 133
B21: NBX0229 (VHH)
VHH: QVQLQESGGGLVQAGGSLRLSCAASGSGILFRISAMGWYRQAPGKERDLVAGISSGGSTNYADSVKGRFTISRDNAKNTVYLQMNSLKPEDTAVYYCNIVGRTDSWGQGTQVTVSS
notes: also called Clone 126
B22: NBX0223 (VHH)
VHH: QVQLQESGGGLVQAGGSLRLSCVASGIDSSFYVMAWYRQAPGKQRELVASISSADSPRYEDFVKGRFTISRDNGKNTVYLQMNSLKPEDTAVYYCYGLYRQVHWGQGTQVTVSS
notes: also called Clone 120
B23: NBX0226 (VHH)
VHH: B22 VHH with V23A, D28T, F31L, S50H, S52N, A54G, E60A, K64Q
notes: also called Clone 123
B24: NBX0219 (VHH)
VHH: QVQLQESGGGLVQPGGSLSLSCTASGSAFSGGDAMGWYRRAPGKQREFVAGISSGGIANYMDSVKGRFTISRDNAKKAVYLQMTSLKPEDTALYYCNSITAVLRGNSGWGQGTQVTVSS
notes: also called Clone 116
B25: NBX0224 (VHH)
VHH: QVQLQQSGGGLVQAGGSLRLSCAASGLTFSSYAMGWFRQAPGKEREFIVAIGWSGGSTYYADSVKGRFTISRDNAKNTVYLHMNSLKPEDTAVYYCAARRTTAWGKGTDYWGQGTQVTVSS
notes: also called Clone 121
B26: NBX0222 (VHH)
VHH: QVQLQESGGGLVQAGGSLRLSCAASGIDSSFYVMAWYRQAPGKQRELVASLGTPDSATYADFVKGRFIISRDNAKSTVYLQMNSLKPEDTAVYYCYGLYRQVYWGQGTQVTVSS
notes: also called Clone 119
B27: NBX0228 (VHH)
VHH: QVQLQESGGGLVQAGGSLRLSCAASGIDSSFYVMAWYRQAPGQQRELVASISMTSADSPRYADFVKGRFTISRDNAKSTVYLQMNSLKPEDTAVYYCYGLYRQVHWGQGTQVTVSS
notes: also called Clone 125
B28: NBX0230 (VHH)
VHH: QVQLQESGGGSVQAGGSLRLSCAASARTLSNYAMGWFRQAPGKEREFVATISRSGGSIHYADSVKGRFTISRDNAKNTVNLQMNSLKVEDTAVYYCGRARGTGYAYTALNQYDYDYWGQGTQVTVSS
notes: also called Clone 127
B29: NBX0234 (VHH)
VHH: B28 VHH with S11L, A26G, L29F, N31T, G56D, S57N, H59Y, N80S, Y106H
notes: also called Clone 131
B30: NBX0218 (VHH)
VHH: QVQLQESGGGLVQAGGSLSLSCTASGSAFSGDAMGWYRRAPGKQREFVAGISSGAITNYMDSVKGRFTISRDNAKNTVYLQMTKLKPEDTAVYYCNRIQAVLRGNSGWGQGTQVTVSS
notes: also called Clone 115
B31: NBX0220 (VHH)
VHH: QVQLQESGGGLVQAGGSLTLSCTASGSAFSGDAMGWYRRAPGKEREFVAGISSGGIPNYMGSVQGRFTISRDNAKNTVYLQMRRLKPEDTAVYYCNSISAVLRGNGVWGQGTQVTVSS
notes: also called Clone 117
B32: NBX0235 (VHH)
VHH: B30 VHH with T23R, A24V, A55G, T57E, Q81R, T83S, K84S, R97L, Q99K
notes: also called Clone 132
B33: NBX0231 (VHH)
VHH: B30 VHH with S19T, A24T, K43Q, Q44E, A55G, D61N, S62F, K84S, R97S, Q99K
notes: also called Clone 128
B34: NBX0233 (VHH)
VHH: B30 VHH with E46D, A55H, R97S, Q99T
notes: also called Clone 130

Each binder was assayed against T1, FimA (Salmonella Type-1 fimbrial protein, A chain), recombinant (Salmonella (serovar ), UniProt P37921 23-185) (assay: phage ELISA, antigen-coated wells, anti-M13-HRP, A405).
T1 sequence: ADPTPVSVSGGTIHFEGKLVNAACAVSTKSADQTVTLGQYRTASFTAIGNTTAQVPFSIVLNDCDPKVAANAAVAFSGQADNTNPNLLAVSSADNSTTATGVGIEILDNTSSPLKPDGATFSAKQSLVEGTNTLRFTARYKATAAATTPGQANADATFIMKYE

Binder	binding over background (PBS-only wells)
B1	≥ 4 fold
B2	≥ 4 fold

These binders were tested against T2, PrgI (Salmonella Type III secretion needle protein), recombinant (Salmonella typhimurium (strain LT2) as …, UniProt P41784 1-80) in the same assay as above.
T2 sequence: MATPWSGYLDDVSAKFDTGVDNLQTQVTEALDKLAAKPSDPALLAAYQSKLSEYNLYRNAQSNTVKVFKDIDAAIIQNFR

Binder	binding over background (PBS-only wells)
B3	≥ 4 fold
B4	≥ 4 fold
B5	≥ 4 fold
B6	≥ 4 fold
B7	≥ 4 fold
B8	≥ 4 fold
B9	≥ 4 fold
B10	≥ 4 fold
B11	≥ 4 fold
B12	≥ 4 fold
B13	≥ 4 fold
B14	≥ 4 fold
B15	≥ 4 fold
B16	≥ 4 fold

Biological target: T3, PrgI-SipD
T3 construct: also called PrgI-SipD fusion
T3 chain: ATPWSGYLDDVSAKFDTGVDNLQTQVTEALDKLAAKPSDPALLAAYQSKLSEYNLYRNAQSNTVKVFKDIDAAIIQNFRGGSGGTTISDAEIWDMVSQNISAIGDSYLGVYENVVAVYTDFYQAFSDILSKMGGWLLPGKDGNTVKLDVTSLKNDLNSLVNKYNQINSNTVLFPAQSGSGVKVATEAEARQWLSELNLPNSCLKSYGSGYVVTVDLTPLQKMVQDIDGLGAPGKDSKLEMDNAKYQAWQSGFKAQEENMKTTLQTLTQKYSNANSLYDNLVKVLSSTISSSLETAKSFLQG
Test: as above

Binder	binding over background (PBS-only wells)
B17	≥ 4 fold
B18	≥ 4 fold
B19	≥ 4 fold
B20	≥ 4 fold
B21	≥ 4 fold
B22	≥ 4 fold
B23	≥ 4 fold
B24	≥ 4 fold
B25	≥ 4 fold
B26	≥ 4 fold
B27	≥ 4 fold
B28	≥ 4 fold
B29	≥ 4 fold
B30	≥ 4 fold
B31	≥ 4 fold
B32	≥ 4 fold
B33	≥ 4 fold
B34	≥ 4 fold
